# B1: N-term VHHActin-nMagH-mCherry (other)
# chain: MAQVQLVESGGGLTQAGGSLRLSCATSGLIFSAFGMGWFRQAPGKEREFVGGINWRGSTNYGDFGGGGSGGGGSHTLYAPGGYDIMGYLDQIGNRPNPQVELGPVDTSCALILCDLKQKDTPIVYASEAFLYMTGYSNAEVLGRNCRFLQSPDGMVKPKSTRKYVDSNTINTIRKAIDRNAEVQVEVVNFKKNGQRFVNFLTIIPVRDETGEYRYSMGFQCETE
# notes: not shown: mCherry red fluorescent protein of the pmCherry construct (engineered)
# Molecular target: T1, iRFP-pMagH-C-term VHHActin
# T1 construct: not shown: iRFP fluorescent protein of the piRFP construct (Addgene 31857)
# Assay: inferred from relocalisation of fluorescence in HeLa cells after 488 nm light (nMagH with pMagH)
# T1 sequence (chain, as listed by the source): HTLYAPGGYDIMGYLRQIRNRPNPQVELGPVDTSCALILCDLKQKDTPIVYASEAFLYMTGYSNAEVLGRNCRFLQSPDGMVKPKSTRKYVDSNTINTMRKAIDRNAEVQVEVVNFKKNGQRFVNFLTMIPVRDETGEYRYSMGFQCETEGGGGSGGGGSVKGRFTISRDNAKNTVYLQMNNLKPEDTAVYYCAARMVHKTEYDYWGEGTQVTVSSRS
binder,measurement,value
B1,binding result,binds

# — patent publication US20190092839A1 (INSTITUTE FOR BASIC SCIENCE, published 2019)
